Three substances from patent US20030158387A1 can be followed below.

The target in assay [1] is chemokine receptor 5 (CCR5) (human) (UniProt P51681). As to the kind of experiment: competition radioligand binding, membranes of CHO-K1 cells expressing CCR5, tracer [125I]-MIP-1 beta; mean ± SEM.
In assay [2] the target is chemokine receptor 1 (CCR1) (UniProt P56482). As to the kind of experiment: competition radioligand binding, membranes of CHO-K1 cells expressing CCR1, tracer [125I]-MIP-1 alpha; mean ± SEM.
For assay [3], the target named is chemokine receptor 5 (CCR5) (human) (UniProt P51681).
The target of assay [4] is chemokine receptor 1 (CCR1) (UniProt P56482). Description: competition radioligand binding, membranes of CHO-K1 cells expressing CCR1, tracer [125I]-MIP-1 alpha.
The target of assay [5] is chemokine receptor 5 (CCR5) (human) (UniProt P51681). As to the kind of experiment: competition radioligand binding, membranes of CHO-K1 cells expressing CCR5, tracer [125I]-MIP-1 beta.
Assay [6] has the same target. The source holds these as a separate data set.
In assay [7] the target is chemokine receptor 1 (CCR1) (UniProt P56482).
Assay [8] has the same target. Description: cell-based or functional assay.
Assay [9] shares this target. This is another data set of the same source.

For orientation: IC50 means the concentration at which inhibition is half-maximal. What is called EC50 (read off the curve) is the concentration needed to bring the measured effect to its halfway point. The low end stands for a more potent agent, the high end for a less potent agent.

RANTES, sequence (P13501 24-91): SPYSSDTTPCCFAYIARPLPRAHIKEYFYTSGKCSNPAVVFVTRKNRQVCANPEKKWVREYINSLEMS
chemokine receptor 5 (CCR5) (human), sequence (P51681 whole entry): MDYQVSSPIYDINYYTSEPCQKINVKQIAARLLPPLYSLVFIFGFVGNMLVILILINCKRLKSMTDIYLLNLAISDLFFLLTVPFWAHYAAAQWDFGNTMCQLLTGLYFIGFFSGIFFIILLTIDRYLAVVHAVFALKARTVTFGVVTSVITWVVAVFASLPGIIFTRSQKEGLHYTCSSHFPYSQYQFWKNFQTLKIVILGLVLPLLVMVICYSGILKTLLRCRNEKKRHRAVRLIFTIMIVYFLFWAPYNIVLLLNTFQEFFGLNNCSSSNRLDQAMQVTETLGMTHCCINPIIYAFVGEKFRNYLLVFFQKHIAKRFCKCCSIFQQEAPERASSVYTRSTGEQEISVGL

Consider AOP-RANTES (ligand), for which the IC50 in [1] came to 0.0968 nM; in assay [2], 2.67 nM. For the same substance, the EC50 (read off the curve) in assay [3] turned out to be 3 nM. Besides, the IC50 (read off the curve) worked out at 4 nM in assay [4] and 0.06 nM in assay [5]. Moreover, in assay [6], the EC50 (aequorin luminescence, CHO-K1 cells expressing CCR5) was 1.94 nM.
For the substance NNY-RANTES (ligand), the IC50 in assay [1] came out at 0.776 nM; in [2], 5.42 nM. Also, the values for the IC50 (read off the curve) in assay [4] and in assay [5] were 4 nM and 0.1 nM, respectively. This substance came in with an EC50 (aequorin luminescence, CHO-K1 cells expressing CCR5) in assay [6] of 1.45 nM.
In [7], “RANTES (from UniProt P13501 24-91) (ligand)” gave a concentration giving a half-maximal response (EC50 (read off the curve)) of 10 nM. The same substance registered an IC50 (read off the curve) in [4] of 0.3 nM. The EC50 of receptor activation (aequorin assay) in assay [8] stood at 6.3 nM. Besides, in assay [9], the EC50 (aequorin luminescence, CHO-K1 cells expressing CCR1) came to 8.03 nM.
